In the DeepSol protein solubility set:

Experiment: soluble on expression in E. coli; label from the status in PepcDB or PDB records

Soluble on expression in E. coli, not soluble:
MGSDKIHHHHHHMQNTDIVVIGSGIGGLSCAALLARYGFDVIVCESHSIAGGAAHGFERNGFKFDSGPSLYSGLSYSPSANPLRQVLDAIGSELPCVTYDTWGCCLPEGDFDTAVGAEQFCEVLMKFCGDDAVAEWQELQRVMEPFARAATSIPPAALRFDFGAARTVGPFVPSLTKNVANIIKLTGPFSRIMDGVVKDSFTRNWLNLLCFLLSGLPADGTSAAEVAFMFADWYRPDAILEYPIGGSSALVDSLVQGLERHGGKLMLGAHVEEVLVEGNRAVGVRLRDRSEIRAKLAVISNASVWDTLKLLPEKAIPKQYRSKRQATPECDSFMHLHLGIDAQGLQSNLRCHYIVVNNWELGVTAPQNVVVISIPSVLDPSLAPAGKHVIHVYTPGNEPYSFWQGMDRRSQEYAEQKRSRAEVMWQALERIIPDIRSRCEVTLVGTPLTHERYLRRHQGSYGPAIQAGSGMFPSPSTPLPGLMCCGDSTFPGIGLPAVAASGLIAANTLAPVNKHLAMLQDINCI
MGSDKIHHHHHHMQPDLLVFGGDLISGPIPLETLDLIYDLKSKYRTASVLGNNDQDIIDSYENKKLSLSNKAQEQIKWVTRLLNEKQILDLKDMPININVGKYFFCHAIADDNRTIFTQKTRISNIKQLFLEVISPFIICGHTHLQFKLKIGSQQIINAGSVGMPFSDKKGAQWLWIENNNFQFRRTLFDEDIAIKNMKNSDFPFVNQFIEEYVKNTVKVRTGYKILRRLEENNRLRK
MGSDKIHHHHHHMQPDVRHSPKEAFEFAANNGFTHVEILMDHPLYSLENLSFAEVIELKWSYDLDLLIHAPATSTNFISISNEMRKASYKEMSKVCYFAEKCGAEVVTFHIGWNPAFINNGNFYFNKSLFDRHNESVLLNEFLPFVKTCPVQLALENTIMIEDGLERALNEIMGKTTLGLTIDVGHYNIRENPFFLKNFDRVVNMHLHDNDGTADQHLALGRGTVDLSKFNLNRYTGFLTIETREEKSIIESRDYLMRVIV
MGSDKIHHHHHHMQPMDAEVLRILRKNNKSQDWGKINKKLHPKIVKYVDGKPVYQFFDTLNDNSFEKNGQLISIRTQPVNSFVPYHVHNYVEMMVVLSGRCVIKTQSESITLIQDEIMIIGCKTIHKIKPINDETIVVEIALKRTAFSLRDLTFLTHSRDAQSVSSTVFFLLSNDDSYGAFNVFHTQHDVNVVNKVNNIIREYYRPDNYSNQVIKFKILELFIRLVRLASKGPILQTQKEDHKNNEVDALTLLLYIEKNYKTVTLKSMAKHFKFHPNYLSSILKRKTGYTFIKLVHLQRINVAAEYLSLTDISIESISLAVGYEDPSCFYKIFRNHMGCSPREYRQRQAA
MGSDKIHHHHHHMQQGQMAYDRAITVFSPDGRLFQVEYAREAVKKGSTALGMKFANGVLLISDKKVRSRLIEQNSIEKIQLIDDYVAAVTSGLVADARVLVDFARISAQQEKVTYGSLVNIENLVKRVADQMQQYTQYGGVRPYGVSLIFAGIDQIGPRLFDCDPAGTINEYKATAIGSGKDAVVSFLEREYKENLPEKEAVTLGIKALKSSLEEGEELKAPEIASITVGNKYRIYDQEEVKKFL
MGSDKIHHHHHHMQQKKTTKEEYQKCVNVVVEYINQHLGEDIDLKSLARISNFSPFYFHRIMKAFLGEPIGTFIVRTRTEAAARLLRYSDIPIADIAYRIGYSSPSSLSKVFRQFYGISPLEYRNNKNFVIMKPAIIRPDLELKSEIKSIPARNVIYIRLSGDYKLNDYGGTWGRLWQFIKEQKLPMGDFSPLCIYHDDPKVTPAEKLRTDVCMVMPVQVAPKGDVGFKTLPAGRYAIFLYKGTYDNLQAVYDTIYGKCLPEMECTLRDEPSAERYLNNPCETAPEELLTEIYIPVE
MGSDKIHHHHHHMQSGYYSSTGGIVTQFHRLDMISNNLANANTTGFKRDDVVIGDFLRLYEQQKEPLPLEDQTREAAKFLNRAMDRVPSIVEEYTDRSIGGITPSENRFDFALQSENAYFMIETPEGIRYTRDGSFTLNSEGRLVTKEGFAVLPREFVQSRQYIDIPDGVVIEADRNGNLYSRTLNNDELGDIIPLGNIAIASFENPKYLEKTGKNLYEYPQERMGERNLATNSGALVQGYLEKSNVNAVWEMTGLIETNRLVDMYSKVMKTHMDDLNTEAITKLAVKA
MGSDKIHHHHHHMQSIPHVDMRRYQNDFDAFTQDVGNGYEKYGFIALTQHGVDTALIERALDTCRELFALPEDVKKQYHRPGQGGARGYTPFGTEVAKDAKHVDLKEFWHVGREVEGEPAYPQLLPNVWPQELPKFKDDMLAIYAALDNLGNQVLEALSVYLGQPKDFFRNKVNNGNSILRPLHYPPIIDEDTPSVRAGAHEDINVLTLLVGSREPGLEVLAKDGTWVPVTIIEGAIICNVGDMLQRLTNHVLPSTTHRVVNPPAPFNEKSRYSIPFFLHFNPDVMITPLESCISDENPQRDEPITADDYLMQRLREIGLIKD
MGSDKIHHHHHHMQTLPTPTTSSNTANQSTFDTTIKRRKTRPVKVGNVTIGGGYPVVVQSMINEDTLDIDGSVAAIRRLHEIGCEIVRVTVPSIAHAVALAEIKQKLITTYQDVPIVADVHHNGMKIALEVAKHIEKVRINPGLYVFEKPNTNRTEYTQAEFEEIGEKIRETLAPLVITLRDQGKAMRIGVNHGSLAERMLFTYGDTPEGMVESALEFIRICESLDFRNIVISMKASRVPVMVAAYRLMAKRMDDLGMDYPLHLGVTEAGDGEYGRIKSTAGIATLLADGIGDTIRVSLTEAPEKEIPVCYSILQALGLRKTMVEYVACPSCGRTLFNLEEVLHKVRESTKHLTGLDIAVMGCIVNGPGEMADADYGYVGKTPGYISLYRGREEIKKVPEDKGVEELINLIKADGRWVDP
MGSDKIHHHHHHMRAPQAQSKLSEVLEFLQQYEGTINPNKLIFGRWIKDAQALRLVDPSEGYMMEAWVYRAQGKLDKALEYMKNAYRLDSSSSSVNVNYASLLLSSGDFNESEKLCIKRIRLDRTNTDIFKILITNTLHTFNQDALFEAIELFIPTNPEAEKVIGQAKKRIFDFDHMQSTLESANLSIEVYKRFSSITQKVRNTRYIGESRTVINCEVNELGTFLLIDEALVNASIEDCLSMYDDLVEEIINDDHYFEEYKKIIFNFIPTTSTAINSAYQLEI
MGSDKIHHHHHHMRIAAYENFITKLLMNNKCMDINEIDKYILRTTSNNYNLVKKQLDRTNKLLEERYERYGCLTEEDNVEALKKGYYDLGKIGLTLEEIRKKIAKFQIDKESPMGIQIEKDWNFATFLLQDLLQLENMNLITYSRLLEERLSELSKNKTNKKTYNKPNNKETTIKTNSPTTNSSDIMTIDEICALLHLSKSKIYHMACAHEIPHHKLNPSKKGRLYFFRSEIEEWLRNKRIRTVDEFLLQFEN
MGSDKIHHHHHHMRIQVASDLHHELAVSNSAMAARLEHADDAVDVLVLAGDIHNQTGAIDLYADYPVPVVYVCGNHEFYGTEMLQLLPELRRRAVGTSVKLLEKDELILNNVRFLGCTMWTDYHAFPLCLNTAMEYARNHMLDHQRIRESNNGRFEPEDAAEEQRAALEFLVRKIREPFPGKTVVITHHAPSARSIHQHEQNNPLVPAFASNLEFLASEADLWIHGHIHLSSDYRLGNCRVICNPRGYPGRRNRSNPALAYENAQFDARKVIDV
MGSDKIHHHHHHMRKDEIMHIVSCADDNYARHLGGMFVSLLTNMDQEREVKLYVIDGGIKPDNKKRLEETTLKFGVPIEFLEVDTNMYEHAVESSHITKAAYYRISIPDLIKDESIKRMIYIDCDALVLEDISKLWDLDIAPYTVAAVEDAGQHERLKEMNVTDTGKYFNSGIMIIDFESWRKQNITEKVINFINEHPDEDFLVLHDQDALNAILYDQWYELHPRWNAQTYIMLKLKTPSTLLGRKQYNETRENPAIVHFCGGEKPWNSNTKHPYRDEYFHYMSYTKWNTIGNPAINQ
MGSDKIHHHHHHMRKLKREAYKLNNIKMLQQDVKYSEEVIEAEFSVEGYSLIDYKRSYTLSRALVNGKWIVYDGNRLESSQKIKEFEICEDFYHESVKAWPNKEKYSRLFTNIKLNEDDQLKVISKKISKSILIHDVKECREEKVVNYVEYNDLNFSYAGNPKDIPSIVEYLRASQSQLTSPSRQVLTESGRLTFILDSEIVASIFHYVLRNFLNGNSPKLKLNEKISSEITIYDNPLNSFSSSFSVFDDEGVKTKKKEIIGDGIITNYLGTLTSKYGEAGNARGILPKPDYFSLEVKQGDWSLNELIDESRGAYIAMGVKKSELIRNSIRITPRSVVKIGQGQIFFREIAIPLQELVTIDAVTRENRGVFIDEEHGGVTPYVRMKVRAILY
MGSDKIHHHHHHMRKMRKASRLFEIIQILRLARQPVTAAMIAERLEVTIRSIYRDIAALQAMRVPIEGGRGIGYILRPGFDLPPLMFSIEEMEAIVLSLALLERTGDDELKQAAKRVSSKIAGAVPPPLRQTFDANALHAWGFAAPSAGTIDLALVRRAIRDEEKLDLSYRDEAGRTTQRIIRPIALIYYAEAVNTVAWCELRQAIRNFRSDRIEGCQPTGLHFKGEGDRLRQIWVEGWETPAVGG
MGSDKIHHHHHHMRKYSQRHIPVMVREVIEFLKPEDEKIILDCTVGEGGHSRAILEHCPGCRIIGIDVDSEVLRIAEEKLKEFSDRVSLFKVSYREADFLLKTLGIEKVDGILMDLGVSTYQLKGENRGFTFEREEPLDMRMDLESEVTAQKVLNELPEEELARIIFEYGEEKRFARRIARKIVENRPLNTTLDLVKAVREALPSYEIRRRKRHFATKTFQAIRIYVNRELENLKEFLKKAEDLLNPGGRIVVISFHSLEDRIVKETFRNSKKLRILTEKPVRPSEEEIRENPRARSGRLRAAERIEEGGD
MGSDKIHHHHHHMRLEELVNNNYNKLNENDLHIWKYICCNKRECCTISIDELAKKCNISRTTISRFTQKLSLEGFGEFKVRLKLELGVSNNFKSSSVEDVYQDYYKTIKDMKEKDFLEICRMIYGAKHLFVYGTGAVQIAAANELKRHFISVNKFFVTVHGEAEMNMVLETATDEDLIVIISLSGEKKSAVEYLKKVKVKNIPSISITKLSDNSIARLCDENLYIITRNIKIEGVVTCENVGQYFILIEILFLKYITYLGQLKKEDTIS
MGSDKIHHHHHHMRLILSQCLANLSVRFLMNRNSYNKIAHLWNVARNGFFGREREYLDAILSVAPIGSTILDLGCGTGRPMAEYIVSRGRCVLGVDQSEEMLRLARQKLPHEQWVLSSIESYEPVEGYHGALLWDSLFHIRRTEHELIVSKVVRGLPSGGRLMLTVGGSAHPEFTDFMYGEEFYYDSNTPQETETFLQRLSCRMVIGEYMNLPDGGRDKGRYAIVAEKI
MGSDKIHHHHHHMRLLFRKAGEFFRDFVSIFKHISDDLEMYLKLDPAAESKLQVFFFYASFQGLMWYRFAHFFYKWKLKVLAYLIYYFVRVVFSMDIHPAARIAPGVVIDHGIGVVIGSTASVGRGTLIYHGVTLGTRKPCSGKRHPDVGENVMIGTGAKILGPIRVGNNAVVGANAVVLEDVPDGAVVVGVPARIVKWRRDFCDDGKTDREHSYSETRFDRLENLLETGKE
MGSDKIHHHHHHMRLTCAIIDDEPLAVSLLESYVLKTPFLDLQGTYNSALDALSDLRDRPVDLLFLDIQMPELSGLEFSRILNADTRVIFTTAFDQYAVDSYRVNALDYLLKPISYPDFLASANKALRWYELLRKPVSSEEKEGSAPIAEKGGMESIFVKSEYKLLQIELRKILYIEGLKDYVKIFVEDEPRPVLSLMSMKSLEDMLPSDRFVRVHRSFIVQPEKIKVIERNRIVFGKEYIPISDNYKQHFLEMIERRSILPK
